Six molecules from paper PMC5870375, “Amyloid-beta modulates microglial responses by binding to the triggering receptor expressed on myeloid cells 2 (TREM2)” (Molecular Neurodegeneration, 2018) can be followed below.

The target of the assay is T1, oligomeric amyloid-β 1–42 (UniProt P05067 672-713).
T1 construct: amyloid-beta 1-42, cut product of the amyloid precursor protein (APP); numbers count on: the Aβ peptide; Heterogeneous mixture of low-n and high-n oligomers, prepared without separation of monomeric Aβ; also called oAβ_(1–42); oAβ; source: synthetic peptide, bought: AnaSpec (AS-20276); oligomers made by incubation at 22 °C for 16 h, then 4 °C for 24 h, supernatant after 16,000×g
The assay is described as follows: ELISA; solid phase binding assay: 96-well plate coated with 100 nM oAβ1-42 in PBS overnight at 4 °C, blocked with 4% BSA; purified Fc or sTREM2-Fc proteins in PBST with 0.5% BSA, 30 min at 37 °C; detected with biotinylated anti-Fc antibody, avidin-HRP, TMB, read at 620 nm. Particulars: both partners purified.

B1: sTREM2-Fc fragment carrying residues 1–91 (Fc fusion, human, UniProt Q9NZC2 19-91, looked up)
chain: HNTTVFQGVAGQSLQVSCPYDSMKHWGRRKAWCRQLGEKGPCQRVVSTHNLWLLSFLRRWNGSTAITDDTLGG
notes: signal peptide in the construct; human TREM2, C-terminally truncated extracellular domain, residues 1-91
Regarding B1, the binding result is “binds”.

B2: sTREM2-Fc fragment carrying residues 1–151 (Fc fusion, human, UniProt Q9NZC2 19-151, looked up)
chain: HNTTVFQGVAGQSLQVSCPYDSMKHWGRRKAWCRQLGEKGPCQRVVSTHNLWLLSFLRRWNGSTAITDDTLGGTLTITLRNLQPHDAGLYQCQSLHGSEADTLRKVLVEVLADPLDHRDAGDLWFPGESESFE
notes: signal peptide in the construct; human TREM2, C-terminally truncated extracellular domain, residues 1-151
Consider B2, for which the binding result is on record as “binds”.

B3: sTREM2-Fc fragment carrying residues 1–51 (Fc fusion, human, UniProt Q9NZC2 19-51, looked up)
chain: HNTTVFQGVAGQSLQVSCPYDSMKHWGRRKAWC
notes: signal peptide in the construct; human TREM2, C-terminally truncated extracellular domain, residues 1-51
Consider B3, for which the binding result is reported as “binds”.

B4: sTREM2-Fc fragment carrying residues 1–131 (Fc fusion, human, UniProt Q9NZC2 19-131, looked up)
chain: HNTTVFQGVAGQSLQVSCPYDSMKHWGRRKAWCRQLGEKGPCQRVVSTHNLWLLSFLRRWNGSTAITDDTLGGTLTITLRNLQPHDAGLYQCQSLHGSEADTLRKVLVEVLAD
notes: signal peptide in the construct
In the case of B4, the binding result is listed as “binds”.

B5: sTREM2-Fc fragment carrying residues 1–111 (Fc fusion, human, UniProt Q9NZC2 19-111, looked up)
chain: HNTTVFQGVAGQSLQVSCPYDSMKHWGRRKAWCRQLGEKGPCQRVVSTHNLWLLSFLRRWNGSTAITDDTLGGTLTITLRNLQPHDAGLYQCQ
notes: as for B4
With B5, the binding result is recorded as “binds”.

B6: sTREM2-Fc fragment carrying residues 1–71 (Fc fusion, human, UniProt Q9NZC2 19-71, looked up)
chain: HNTTVFQGVAGQSLQVSCPYDSMKHWGRRKAWCRQLGEKGPCQRVVSTHNLWL
notes: signal peptide in the construct; human TREM2, C-terminally truncated extracellular domain, residues 1-71
In the case of B6, the binding result was “binds”.
